Assays:
[1] = molecular target: v5-tagged full-length GIGYF2 (1–1,320) (human); assay: proximity ligation; cells cotransfected with v5-GIGYF2, HA-4EHP and FLAG-empty vector; fixed 24 h after transfection; PLA with v5 and HA antibodies
[2] = molecular target: v5-tagged full-length GIGYF2 (1–1,320) (human); assay: proximity ligation

Chain of v5-tagged full-length GIGYF2 (1–1,320) (human) (Q6Y7W6 2-1299): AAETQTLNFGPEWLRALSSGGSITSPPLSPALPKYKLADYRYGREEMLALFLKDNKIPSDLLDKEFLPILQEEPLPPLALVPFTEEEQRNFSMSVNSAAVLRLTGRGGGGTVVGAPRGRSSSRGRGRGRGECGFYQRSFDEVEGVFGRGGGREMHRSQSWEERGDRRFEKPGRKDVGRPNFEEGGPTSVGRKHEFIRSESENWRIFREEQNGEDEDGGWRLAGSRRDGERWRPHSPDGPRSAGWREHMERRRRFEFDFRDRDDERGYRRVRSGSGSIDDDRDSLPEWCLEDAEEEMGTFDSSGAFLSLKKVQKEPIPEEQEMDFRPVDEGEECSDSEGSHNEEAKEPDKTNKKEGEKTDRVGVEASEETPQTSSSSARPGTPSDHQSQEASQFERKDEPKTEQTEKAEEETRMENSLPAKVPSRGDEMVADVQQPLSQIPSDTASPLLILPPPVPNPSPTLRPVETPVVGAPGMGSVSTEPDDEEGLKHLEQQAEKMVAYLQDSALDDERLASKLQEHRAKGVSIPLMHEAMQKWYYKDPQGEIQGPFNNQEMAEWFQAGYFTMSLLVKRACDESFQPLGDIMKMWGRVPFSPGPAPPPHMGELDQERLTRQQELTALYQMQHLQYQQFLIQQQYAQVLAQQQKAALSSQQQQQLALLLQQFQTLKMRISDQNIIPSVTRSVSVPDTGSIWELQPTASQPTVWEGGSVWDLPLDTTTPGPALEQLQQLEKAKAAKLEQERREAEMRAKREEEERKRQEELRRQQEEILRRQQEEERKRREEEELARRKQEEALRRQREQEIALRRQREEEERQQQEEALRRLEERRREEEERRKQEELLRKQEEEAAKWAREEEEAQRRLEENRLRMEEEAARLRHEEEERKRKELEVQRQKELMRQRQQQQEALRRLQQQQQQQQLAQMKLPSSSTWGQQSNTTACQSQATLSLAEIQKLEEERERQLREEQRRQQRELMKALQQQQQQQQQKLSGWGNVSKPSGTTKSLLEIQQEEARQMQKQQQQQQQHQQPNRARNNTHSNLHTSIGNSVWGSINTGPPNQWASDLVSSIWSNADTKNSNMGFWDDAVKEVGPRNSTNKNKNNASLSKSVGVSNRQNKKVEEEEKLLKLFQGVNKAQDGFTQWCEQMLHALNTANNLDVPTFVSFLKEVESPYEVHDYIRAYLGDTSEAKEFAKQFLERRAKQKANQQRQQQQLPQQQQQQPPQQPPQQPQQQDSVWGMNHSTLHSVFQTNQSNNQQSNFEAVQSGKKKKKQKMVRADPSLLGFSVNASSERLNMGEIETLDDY

HA-tagged 4EHP (from UniProt O60573 1-245)
PLA punctate per cell (punctate per cell) [1]: 19.8 | PLA punctate per cell (punctate per cell) [2]: 61

— publication PMC9371684
